Experimental data as given in patent US20050207981A1, “Compositions and methods for determining substrate specificity of hydrolytic enzymes” (The Regents of the University of California, priority 2003, published 2005).

Test system: C[C@H](NC(=O)[C@H](C)NC(=O)[C@H](CCCNC(=N)N)NC(=O)[C@H](CCCNC(=N)N)NC(=O)c1cc(F)ccc1O)C(N)=O
Assay: purified protein, by the assay type
Settings: other: detailed kinetic analysis of substrate hydrolysis; pH 8.0; 25.0 °C
Procedure: The combinatorial tetrapeptide library thus obtained was used to assay the substrate specificity of bovine p-chymotrypsin as follows. A 1 μL aliquot of each library member in DMSO was diluted to 100 μL in one well of a black polystyrene 96-well plate with a solution containing 50 mM Tris-HCl pH 8.0, 100 mM NaCl, 20 mM CaCl2, 10 μM [Tb(EDTA)]+and 10 μM enzyme. The resulting mixture was allowed to react at 25° C. for 30 min. Hydrolysis was followed by observing the increase in fluorescence at 546 nm upon excitation at 250 nm.
To elucidate any cooperativity between subsites, a series of single substrates was synthesized and assayed with chymotrypsin. […] Peptide sequences were designed to compare the most reactive amino acid in each sublibrary (Arg) with an amino acid with moderate reactivity and neutral functionality (Ala). Alanine, a small, neutral amino acid, was included in the P4′ position in all peptides, providing extended backbone interactions to enhance turnover. The kinetic data obtained from single substrate hydrolysis were analyzed using the standard Michaelis-Menten equation.

Question: Which results are given for bovine α-chymotrypsin (Bos taurus)?
Answer: Km: 0.5 ± 0.1 mM; kcat: 2.2 ± 0.2 s⁻¹; kcat/Km: 4400 ± 1000 M⁻¹ s⁻¹
